Experimental data as given in the RNAGym collection of RNA variant scans (doi:10.1073/pnas.2313332121).

B1: TPR t1 (parent)
chain: GACCAAUCUGCCCUCAGAGCUCGAGAACAUCUUCGGAUGCAGAGGAGGCAGGCUUCGGUGGCGCGAUAGCGCCAACGUCCUCAACCUCCAAUGCAUCCCACCACAUGAUGAUGCCUGAAGAGCCUUGGUUUUUUG

Variants of: B1
Test: polymerase ribozyme fitness, log enrichment relative to wild type (log ratio); higher = more active; in vitro selection for triplet polymerase activity
How it was run: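 Each subunit of a heterodimeric triplet polymerase ribozyme was mutagenized into a library by PCR, transcribed, and subjected to one round of in vitro selection, run in triplicate. Libraries were annealed with a biotinylated primer, the partner subunit and triplets, incubated frozen at −7 °C, and extended constructs were gel-excised, captured on streptavidin beads and recovered by RT-PCR. Input and output libraries were sequenced on Illumina, keeping genotypes with ≥10 input reads and ≥1 read per output. Fitness is log base 2 of genotype enrichment divided by wild-type enrichment, from inverse-variance-weighted replicate averages.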

Going from GACCAAUCUGCCCUCAGAGCUCGAGAACAUCUUCGGAUGCAGAGGAGUCAGGCUUCGGUGGCGCGAUAGCGACAACGUCCUCAACCUCCAAUGCAUCCCACCACAUGAUGAUCCCUGAAGAGCCUUGGUUUUUUG [G48U C72A G113C] to GACCAAUCUGCCCUCAGAGCUCGAGAACAUCUUCGGAUGCAGAGGAGUCAGGCUUCGGUGGCGCGAUAGCGGCAACGUCCUCAACAUCCAAUGCAUCCCACCACAUGAUGAUGCCUGAAGAGCCGUCGUUUUUUG [G48U C72G C86A U125G G127C], the “polymerase ribozyme fitness (log ratio)” value falls from -2.2 to -4.47.

Going from GACCAAUCUGCCCUCAGAGCUCGAGAACAUCUUCGGAUGCAGAGGAGUCAGGCUUCGGUGGCGCGAUAGCGCCAACGUCCUCUAUCUCCAAUGCAUCCCACCACAUGAUGAUGCCUGAAGAGCCUUGGUUUUUUG [G48U A83U C85U] to GACCAAUCUGCCCUCAGAGCUCGAGAACAUCUUCGGAUGCAGAGGAGUCAGGCUUGGGUGGCGCGAUAGCGUCAACGUCCUCAACGUCCAAUGCAUCCCACCACAUGAUGAUGCCUGAAGAGCCUUGGUUUUUUG [G48U C56G C72U C86G], the “polymerase ribozyme fitness (log ratio)” value falls from -0.796 to -2.89.

First: GACCAAUCUGCCCUCAGAGCUCGAGAACAUCUUCGGAUGCAGAGGAGUAAGGCUUCGGUGGCGCGAUAGCGCCAACGUCCUCAACCUCGAAUGCAUCCCACCACAUGAUGAUGCCUGAAGAGCCUUGGUUUUUUG [G48U C49A C89G]
Second: GACCAAUCUGCCCUCAGAGCUCGAGAACAUCUUCGGAUGCAGAGGAGUCAGGCUUUGGUGGCGCGAUAGUGCCAACGUCCUCAGCCUCCAUUGCAUCCCACCACAUGAUGAUGCCUGAAGAGCCUUGGUUUUUUG [G48U C56U C70U A84G A91U]
The “polymerase ribozyme fitness (log ratio)” value of the first is higher: -3.48 for the first, -4.84 for the second.

First: GACCAAUCUGCCCUCAGAGCUCGAGAACAUCUUCGGAUGCAGAGGAGUCAGGCUUCGGUGGCGCGAUAGCGCCAACGUCCUCAACCUCCAAUGCUUCCCACCACUUGAUGAUGCCUGAAGAGCCAUGGUUUUUUG [G48U A95U A105U U125A]
Second: GACCAAUCUGCCCUCAGAGCUCGAGAACAUCUUCGGAUGCAGAGGAGUUAGGCUUCGGUGGCGCGAUAGCGCCAACGUCCUCAACCUCCACUGCAUCCCACCACAUGAUGAUGCCUGAAGAGCCUUGGUUUUUUG [G48U C49U A91C]
The “polymerase ribozyme fitness (log ratio)” value of the first is lower: -4.37 for the first, -2.49 for the second.

GACCAAUCUGCCCUCAGAGCUCGAGAACAUCUUCGGAUGCAGAGGAGUCAGGCUUCGGUGGCGCGAUAGCGCGAACGUCCUCAACCUCCAAUGCGUCCCACCACAUGAUGAUGCCUGAAGAGCCUUGGUUUUUUG [G48U C73G A95G] and GACCAAUCUGCCCUCAGAGCUCGAGAACAUCUUCGGAUGCAGAGGAGUCAGGUUUCGGUGGCGCGAUAGCGCCAACGUCCUCAACCUCCAAUCCAUCCCACCACAUGAUGAUGCCUGAAGAGCCUUGGUUUUUUG [G48U C53U G93C] are within 0.2 log units of each other in “polymerase ribozyme fitness (log ratio)” value: -1.55 for the first, -1.66 for the second.

Going from GACCAAUCUGCCCUCAGAGCUCGAGAACAUCUUCGGAUGCAGAGGAGUCAGGCUUCGGUGGCGCGAUAGCGUCAAUGUCCUCAACCUCCAAUGCAUCCCACCACUUGAUGAUGCCUGAAGAGCCUUGGUUUUUUG [G48U C72U C76U A105U] to GACCAAUCUGCCCUCAGAGCUCGAGAACAUCUUCGGAUGCAGAGGAGUCAGGCUUCGGUGGCGCGAUAGCGCCAACGUCCUCAGCCUCCAAUGCAUCCCACCACAUGAUGAUGCCCGAAGAGCCUUGGUUUUUUG [G48U A84G U116C], the “polymerase ribozyme fitness (log ratio)” value rises from -3.61 to -1.79.

Going from GACCAAUCUGCCCUCAGAGCUCGAGAACAUCUUCGGAUGCAGAGGAGUCAGGCUUCGGUGGCGCGAUAGCGACAACGUCCUCAACCUCCAAUGCAUGCCACCACAUGAUGAUGCCUGAAGAGCCUUGGUUUUUUG [G48U C72A C97G] to GACCAAUCUGCCCUCAGAGCUCGAGAACAUCUUCGGAUGCAGAGGAGUCAGGUUUCGGUGGCGCGAUAGCGCCAACGUCCUCAACCUCCAACGCAUCCCUUCACAUGAUGAUGCCUGAAGAGCAUUGGUUGUUUG [G48U C53U U92C A100U C101U C124A U131G], the “polymerase ribozyme fitness (log ratio)” value rises from -5.25 to -2.57.

First: GACCAAUCUGCCCUCAGAGCUCGAGAACAUCUUCGGAUGCAGAGGAGUCAGGCUUUGGUGGCGCGAUAGCGCCAACGUCCUCAACCUCCAAUGCAUCCCACCACAUGAUGAUGCCUGAAGAGCCUUGGUUUUUUG [G48U C56U]
Second: GACCAAUCUGCCCUCAGAGCUCGAGAACAUCUUCGGAUGCAGAGGAGUCAGGCUUAGGUGGCGCGAUAGCGCCAACGUCCUCAACCUCCAAUGCAUCCCACCACAUGAUGAUGCCUGAAGAGCCUUGGUUUUUUG [G48U C56A]
The “polymerase ribozyme fitness (log ratio)” value of the first is higher: -0.606 for the first, -1.75 for the second.

Going from GACCAAUCUGCCCUCAGAGCUCGAGAACAUCUUCGGAUGCAGAGGAGUCAGGCUUCGGUGGCGCGAUAGCGCUAACGUCCUCAACCUCCAAUGCAUCCCACCACAUGAUGAUGCCUGAAGAGCCUUGGUUUUUUG [G48U C73U] to GACCAAUCUGCCCUCAGAGCUCGAGAACAUCUUCGGAUGCAGAGGAGUCAGGCUUCGGUGGCGCGAUAGAGCCAACGUCCUCAACCUCCAAUGCAUCCCACCACAUGAUGAUGCCUGAAGAGCCUUGGUUUUUUG [G48U C70A], the “polymerase ribozyme fitness (log ratio)” value falls from -1.06 to -2.08.

First: GACCAAUCUGCCCUCAGAGCUCGAGAACAUCUUCGGAUGCAGAGGAGUCAGGCUUCGGUGGCGCGAUAGGGCCAACGUCCUCAACCUCCAAUGCAUCCCACCACAUGAUGAUGCCUGAAGAGCCUUGGUUUUUUG [G48U C70G]
Second: GACCAAUCUGCCCUCAGAGCUCGAGAACAUCUUCGGAUGCAGAGGAGUCAGGCUUCGGUGGCGCGAUAGUGCCAACGUCCUCAACCUCCAAUGCAUCCCACCACAUGAUGAUGCCUGAAGAGCCUUGGUUUUUUG [G48U C70U]
The “polymerase ribozyme fitness (log ratio)” value of the first is lower: -4.24 for the first, -1.39 for the second.

In the case of GACCAAUCUGCCCUCAGAGCUCGAGAACAUCUUCGGAUGCAGAGGAGUUAGGCUUCGGUCGCGCGAUAGCGCCAACGUCCUCAUCCUCCAAUGCAUCCCACCACAUGAUGAUGCCUGAAGAGCCUUGGAUUUUGG [G48U C49U G60C A84U U129A U134G], the “polymerase ribozyme fitness (log ratio)” value is reported as -1.92.
